Assay: label from the status in PepcDB records
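Also: failed if final PepcDB status was selected cloned or expressed and not failed if soluble or beyond.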

| Sequence | protein production |
| --- | --- |
| MDKIHAMQLFIRVADLESFSRAAETLALPKGSVSRQIQALESHLGVRLLHRTTRRVQLTQDGMVYYERAKDLLSNLDELDGMFQHDPASISGRLRVDMPVGFAKKMVIPHLPTFLQQYPGIELELSSSDRQVDVIREGFDCVVRVGALKDSGLIARPLGKLTQINCASPDYLARFGYPQSLEDLADHALIHYASTLGVRPPGFEVMIDGAVRWVKTGGILTVNSTETYQAACIAGLGIIQVPRTGVREALRAGDLIEILPQYRAEPLPVSLIYPHRRNLSRRVNLFMEWLGGLMKAYVD | failed |
| GGVMHYTDKAALPADGEAREVAALFDTWNAALATGNPHKVADLYAPDGVLLPTVSNEVRASREQIENYFEMFLTKKPKGVINYRTVRLLDDDSAVDAGVYTFTLTDKNGKKSDVQARYTFVYEKRDGKWLIINHHSSAMPEVDTATATAAVTKAK | not failed |
| MLFTMMVSLYTSRVVLATLGVEDFGIYNVVGGVVTMFAIISTSLSSAISRFITIELGKGDLRRLKTVFSTAVVIQFLMALVVVILAELIGVWFLNNKMNIPEVRMNAANWVLQFSIFTFGVNLICIPFNALIIAHERMSAFAYVSILEVSLKLLIVYLLVLMSVDKLIVYGALLLVVAIVITFAYFIYCRRHFKECKCFCRIDRFLLKRMLSFSGWNFIGASSAILRDQGVNIAINLFCGPTVNAARGMAVQVNHAINSFAQNFMTALNPQITKSFAVGDSKYMFTLIFQGARLSFYMLLFLSLPVLMSTEYILSIWLKIVPDYTIIFVRLVLIFAMCESISNPLITAMLATGSIRNYQIVVGGMQMMNFPISYILLERGYAPEITLYVAIGISLCCLALRLFMLRSMIQLPVRSYMKNVFFNICAVTIFSVAIPYLISLRLQSSFYSFLILSFSCIICSFMAIFFVGCKASERVFVVDQVRKLIKNNL | failed |
| MRSFSKFAQIVFFGLLIVSAIFVVSCGGSGNAVLNKDKPLVFFNRQPSDPTTGEIDMTSMNWNDKTYYVGFDAAGGGAVQGKLITDFLVSAETSLDRNGDGIIGYVLCIGDVGHNDSKARTEGIRKALGTWAGSTDPGKTKQGSITIAGKTFDVVELEGKAMTGTDGSTWNANAATEAMGGWATKFADQIDMVVSNNDGMAMGCLQASNYPAGVPIFGYDANADAIEAVGKGLLTGTVSQNVDAQATATLQVLRNLLDGLTGTDVYTKGITAEDSYGNKISAPVQYWADVKAVMAANSGVTKANYENYLGGTRDAGIKQTNAPKKKVLLTIYNSGDNFLSSSYLPALKYYAPLLNIELTIVQGDGQNESSCLDKFTNLNNFDAFAVNMVKTNSGSNYTDKLKY | failed |
| MNSHMLVSSEIDIGLNKSNIERPPGSKKRTKHLPCEVPLAESADRILEPQDYLNFTRFSLGFVETETYDNPRFGGHQTLSERERSYSAVNQTIHCGFVKGTGFDLSEKDRAYMKNCVVSVSSCIFGSSDFLRRPATKKISEFSKRNVCFVMFVDEQTLSKLASEGHVPDKQGFVGLWKTVVVSNLPYNDMRKTGKVPKFLSHRLFPSSRYSIWLDSKMRLTTDPMLIIDFFLWRTKSEFAISNHYDRHCVWDEVLQNKRLNKYNHSAIDEQFMFYRSDGLKKFDPSDPNSPLPSYVPEGSFIVRAHTPMSNLFTCLWFNEVDRFTSRDQLSFAYTYLKLQRLNSDRPLRLNMFKDCERRALTKLFHHRVDSSPPSPPT | not failed |
| KHSSTQQRLSRMLHEDGFVMHYQLLQSVVEKDVISFEALLRYQDREGNLCPPTFISDFQLLNMMPTLDKLVIDKVLTDMQKMDLNEDRRVAINISVASIEEHGFAEHVIDRLKFFSIPPHWLEIEITEEAILSDNHNLLSTLEILKSHGIKIAMDDFGTGYASFPHLLKYPFDKIKLDRSLLLDASTTKGKQLYQLIAQMGDVANCEVVAEGVETEDEFKFVAECGVDKVQGFLIARP | failed |
| MRNIYDLANELERGIRALPEYKNLVEKKEAIATDAEASALFKEFTDFQEDFYAKMQAGTMPTAEEQAAVQELGQKVEANALLKEYLTAQQSLSVYLNDIERIIFKPLQELNN | failed |
| MSHSVEAEDNKLVKTFKDIIPLTFGEEIGNSVSHGVAAFIALCALPYAAIHSFLEYGVLGAFSVSVYVISIFLMFISSTVYHAMPNQSSHKFILRIIDHSMIYVAIAGTYTPICLTLVGGWIGWSSMVVLWGITIWGILYKSLAKNVNHKLSLIMYLVMGWIGVLFLPTIIFDSSLLFMLFILFGGLAYTIGAWFYAQKNRPYFHMIWHFFIIVASVFHFVAIMYFM | failed |
| MDRPERSEVLSPEDFLQAMPIGKTASILDLGAGTGFLTIPAAKLVDNTVFALDLDAKMLELIESKAKEAGLANVETLEASMDDIPLEANSVDVVLASLVLHEADSLADVLREVSRVVKTGGYFASLEFDTKGTDLKGPPMEIQISAEKLKEELAGFGFEVVKNWQLDEGMYVSIAVKKLEHHHHHH | not failed |
| MNCKFEGSKVFFTSDTHFYHGNIIRFCNRPFKDVGMMNETIISNWNNTVGLDDIVFHLGDFCLGGSAEWTKILDRLNGKIYLILGNHDLKNLRQGYVDRFEHLAMQMHIEVNKQKIYLNHYPFLCFDGGYKDVWQLFGHVHTRNNNTGIDATRLQHLYPTQYDVGVDNNNFMPVSFAQVKTIIEKQIKQSKMEELEHHHHHH | not failed |
| KNVVHQLSVTLEDLYNGATRKLALQKNVICDKCEGRGGKKGAVECCPNCRGTGMQIRIHQIGPGMVQQIQSVCMECQGHGERISPKDRCKSCNGRKIVREKKILEVHIDKGMKDGQKITFHGEGDQEPGLEPGDIIIVLDQKDHAVFTRRGEDLFMCMDIQLVEALCGFQKPISTLDNRTIVITSHPGQIVKHGDIKCVLNEGMPIYRRPYEKGRLIIEFKVNFPENGFLSPDKLSLLEKLLPERKEVEETDEMDQVELVDFDPNQERRRHYNGEAYEDDEHHPRGGVQCQTS | failed |
| MVPDWEEVLGLWRAGRYYEVHEVLEPYWLKATGEERRLLQGVILLAAALHQRRLGRPGLRNLRKAEARLEGLPCPLMGLDWRSLLQEARRRLGA | not failed |
| MMFLSKTLTSLGQWPHSLPRISLMDRYVARQLIPPFLFSVGVVASLGLAIGNLSDLGNKIVEKNLPVAKAAEVLLLKVPEFLAYSLPVAVMLATMMTFGRLSGDCEIIAIRSCGVSLYRLILPAVVLSLLVTGWAFVLTEWVVPVANYRATSILIESIDEEHPFWQNRDVFYPEFEEIKLDNGQTARRLKSLVYAEKFDGKEMQNLTVLQWTENHLKHIVLSDNATWNNDNKRWDFFHGTVYRLTETEDYQEAVPFTNKQIALPQSAFDFARQGRDPYEMTIAEAQDYIKILKLIGDEKKTQFFQVRTEQKLAFPFVCIVFAVVGSAIGARPQRISRATGFGLTIVIIFAYYILGFFSGSLGIVGLISPTLAAWLPNFVGLGVGIWLLYEFNQG | failed |
| MKTPTRVSFEKKIHTPPSGDRDAERSPPKKFLRGLSGKVFRKTPEFKKQQMPTFGYIEESQFTPNLGLMMSKRGNIPKPLNLSKPISPPPSLKKTAGSVASGFSKTGQLSALQSPVNITSSNKYNIKATNLTTSLLRESISDSTTMCDTLSDINLTVMDEDYRIDGDSYYEEDSPTFMISLERNIKKCNSQFSPKRYIGEKCLICEESISSTFTGEKVVESTCSHTSHYNCYLMLFETLYFQGKFPECKICGEVSKPKDKDIVPEMVSKLLTGAGAHDDGPSSNMQQQWIDLKTARSFTGEFPQFTPQEQLIRTADISCDGFRTPRLSNSNQFEAVSYLDSPFLNSPFVNKMATTDPFDLSDDEKLDCDDEIDESAAEVWFSKTGGEHVMVSVKFQEMRTSDDLGVLQDVNHVDHEELEEREKEWKKKIDQYIETNVDKDSEFGSLILFDKLMYSDDGEQWVDNNLVILFSKFLVLFDFEEMKILGKIPRDQFYQVIKFNEDVLLCSLKSTNIPEIYLRFNENCEKWLLPKWKYCLENSSLETLPLSEIVSTVKELSHVNIIGALGAPPDVISAQSHDSRLPWKRLHSDTPLKLIVCLNLSHADGELYRKRVLKSVHQILDGLNTDDLLGIVVVGRDGSGVVGPFGTFIGMINKNWDGWTTFLDNLEVVNPNVFRDEKQQYKVTLQTCERLASTSAYVDTDDHIATGYAKQILVLNGSDVVDIEHDQKLKKAFDQLSYHWRYEISQRRMTPLNASIKQFLEELHTKRYLDVTLRLPQATFEQVYLGDMAAGEQKTRLIMDEHPHSSLIEIEYFDLVKQQRIHQTLEVPNL | failed |
| MNRILQQVANQYWFRVSLTVICCLATICLGVHQSYVWFSVSACLLILSIIWQVRLYRLHIKQVLFMIDALENNDSAFRFPEESGTPESKQINRALNRVGHILYNVKAETAQQEKYYKLILDFVSTGLLVLNDNGAVYQKNKEALRLLGLNVFTHVRQLSKVDATLMEKIESCCSGDKLQVVFHNERGTVNLSIRVSEINVHKEHLRILALNDINIELDEKEIDSWIRLTRVLTHEIMNSVTPITSLSDTLLSMVEDKDEEISHGLQTISATGKGLLAFVESYRKFTRIPTPEPSLFYLKAFIERMVELARHQNPCDHITFHTKIDPADLILHADENLISQVVINLLKNAIQAIGDQPDGQIDIQVYCNETEEVLIEIKNNGPVIPPEIVEHIFIPFFTTKEGGSGIGLSISRQIMRLSGGSLTLLPDNKETKFILKFK | failed |
| MWKKKIVLSFLFYLISALGISLTIQAGVGVSSFNAFNVTFATLTHLKVGTVTTAINFAFLGTCWLLDQQRKIQDYLIILVALIGFGFVINFFLYQLFGSLVFQNYLVKIVLFILGTIIAGIGTGQVVALGVLQFPIEKFCTLISERTRYSFQFYRYLVDIFCVSLALGLSISYHLPIFVREGTVISLFLLSWVISWSRKRGQQRILRIQIKKLESE | failed |
| MINFEATELRLGLPGGNHGGEMAGKNNGKRGFSETVDLKLNLSSTAMDSVSKVDLENMKEKVVKPPAKAQVVGWPPVRSFRKNVMSGQKPTTGDATEGNDKTSGSSGATSSASACATVAYVKVSMDGAPYLRKIDLKLYKTYQDLSNALSKMFSSFTIGNYGPQGMKDFMNESKLIDLLNGSDYVPTYEDKDGDWMLVGDVPWEMFVDSCKRIRIMKGSEAIGLAPRALEKCKNRS | failed |
| MRDDVFGQSNSLTRADSAEAWDGVLLGFMAHAAVTPQHLARVLELEPDFALAHAIKGLFMLLLGRREMTPVAIEAMAAAERAAAARAITAREGHYLAALRHWLAGNPSRSVQEFEAILRAHPDDTLAMKLSHATRFVLGDPAGMRRSIERVMPAYAPDHAGRGYLLGCHAFALEETGAYDKAEIAGRQALWMVSDDAWGLHAVAHVHEMKGQSELGLDWLAGREAAWSHCNNFRYHVWWHKALMHLDQGQIDQVFDLYDSAIRKDKTDDYRDISNATSLLSRLELEGVNVGDRWEELADLSAARTEDGCLIFADLHYLLALTGDTREDAISRMLHRIKRDADMAQCDTTRRMADPGLAAAQGLEAFGEGQYGQAFDHLLTARGSMQLAGGSHAQRDVFERITIDAGLRAGRLDAVERVLDDRRAKRGGHEDTYALARRALIEAGRDDRNIHSVPAE | failed |
| MQDFRFVAAAIVFIFTLILVTVRPWKIDIGYGALIGAFVSIILGISTPADVIKVWNIIWNPTFTFVAIIAMSLVLDYAGFFEYYAIRISKFAGGNGIKLFVFIVILGSLTAAFFANDGAVLVLTPIVLSIMDMTGIGKKGAVAYIMAIGFISDSSSLPFVISNLVNIIGSGYFGISFASYAKVMVIPDIISVVSSLGLLLLYYRKDIPRIYQVESLPNPKNVIKDPLIFKLAFPFMAIVVLAYFLTSFDLVPVSFVAVPAATILIVVARYNHRINTRSIIAEAPWQVVVFSLGMYIVVYGFGDNGLTSVLVHVTKSILLLGNPLSTVLAGLLFGAMAGSMNNLPSVMMGALTISHLNQNSFLIYANVIGNDIGPKFTPIGSLATLLWIYTLQRKHGVQITPIYYMKVGFIIAFPVLVLTLLSLYATIYFGL | failed |
| MGLRDAEVRRAWAARLASWLPAPPGDVLDLGCGTGSLSLLAAEQGHRVTGVDLSPAMVELARTKLAGRDAVFLTGDAAAPPVGEQRFDAVLVRHVLWTLPDPGRALRHWRQLLRPGGRLVLVEGVWGSVSPVGIPADRVTALLGPLTGQARVERLSDDPSLWGREVADERYAVVATYGLEHHHHHH | failed |

From a protein production outcome set (Wang et al. 2014)
